The chains are these.
B1: NLV2 TCR alpha chain (CDR3α only) (parent)
chain: AGPMKTSYDKVI

The assay covers variants of B1. Put plainly: T-Switch: Jurkat TCRβ−/− cells expressing a CDR3 saturation-mutagenesis library, stained with two peptide-HLA-A*02:01 tetramers (original and novel peptide) plus anti-CD3, FACS-sorted into four gates, gDNA sequenced. The following applies: tetramers 1 µg/mL, 30 min on ice, SP, DP and SW gates expanded about 10 days between rounds ('two to three rounds of selection' in the Methods), unresolved parent, parent is a CDR3 fragment, scale: fold enrichment, numbering: sequential-on-construct, sequence starts at 1.

The mark [1] stands for this setting: with both tetramers (double-negative gate, binds neither): HLA-A*02:01 with … and with …, gate DN: OPPOSITE: higher = more of the variant in the gate that binds neither peptide = LESS binding (or no expression; inferred). Fold enrichment of the CDR3 variant in one FACS gate of a two-tetram.
[2] abbreviates: with both tetramers (double-positive gate): HLA-A*02:01 with … and with …, gate DP: higher = more of the variant in the gate that binds both peptides. Fold enrichment of the CDR3 variant in one FACS gate of a two-tetramer stain. SP/DP/SW gates were expanded and re-sorted bef.

On to […] (CDR3 as printed); I12T derived by comparing it with the table's wild-type CDR3 AGPMKTSYDKVI, for which the enrichment turned out to be 0.984 under setting [1] and 0 under setting [2].
The like results for […] (CDR3 as printed); A1T derived by comparing it with the table's wild-type CDR3 AGPMKTSYDKVI were, in that order, 0.871 and 0.
As to […] (CDR3 as printed); M4I derived by comparing it with the table's wild-type CDR3 AGPMKTSYDKVI, the enrichment by setting is: under setting [1], 0.318; under setting [2], 0.
For the variant […] (CDR3 as printed); P3R derived by comparing it with the table's wild-type CDR3 AGPMKTSYDKVI, the enrichment reads like this: under setting [1], 1.32; under setting [2], 0.
On the same counts, the results for […] (CDR3 as printed); A1I derived by comparing it with the table's wild-type CDR3 AGPMKTSYDKVI are 0.798 and 0.
As to […] (CDR3 as printed); T6V derived by comparing it with the table's wild-type CDR3 AGPMKTSYDKVI, the enrichment runs as follows: under setting [1], 0.56; under setting [2], 0.
In the case of […] (CDR3 as printed); M4W derived by comparing it with the table's wild-type CDR3 AGPMKTSYDKVI, the enrichment was 0.861 under setting [1] and 0 under setting [2].
On the same counts, the results for […] (CDR3 as printed); S7M derived by comparing it with the table's wild-type CDR3 AGPMKTSYDKVI are 1.3 and 0.
For the variant […] (CDR3 as printed); K10M derived by comparing it with the table's wild-type CDR3 AGPMKTSYDKVI, the enrichment under setting [1] stood at 1.08 and the enrichment under setting [2] was determined as 0.
Consider […] (CDR3 as printed); P3L derived by comparing it with the table's wild-type CDR3 AGPMKTSYDKVI, for which the enrichment reads like this: under setting [1], 1.13; under setting [2], 0.
[…] (CDR3 as printed); S7W derived by comparing it with the table's wild-type CDR3 AGPMKTSYDKVI: the enrichment reads like this: under setting [1], 0.807; under setting [2], 0.
On the same counts, the results for […] (CDR3 as printed); S7I derived by comparing it with the table's wild-type CDR3 AGPMKTSYDKVI are 1.04 and 0.
On the same counts, the results for […] (CDR3 as printed); M4N derived by comparing it with the table's wild-type CDR3 AGPMKTSYDKVI are 0.728 and 0.
Take […] (CDR3 as printed); I12F derived by comparing it with the table's wild-type CDR3 AGPMKTSYDKVI: the enrichment reads like this: under setting [1], 1.16; under setting [2], 0.
With […] (CDR3 as printed); I12P derived by comparing it with the table's wild-type CDR3 AGPMKTSYDKVI, the enrichment reads like this: under setting [1], 1.18; under setting [2], 0.
Turning to […] (CDR3 as printed); K10H derived by comparing it with the table's wild-type CDR3 AGPMKTSYDKVI, the enrichment by setting is: under setting [1], 0.835; under setting [2], 0.
Turning to […] (CDR3 as printed); K10L derived by comparing it with the table's wild-type CDR3 AGPMKTSYDKVI, the enrichment under setting [1] was found to be 1.05 and the enrichment under setting [2] was 0.
On the same counts, the results for […] (CDR3 as printed); M4H derived by comparing it with the table's wild-type CDR3 AGPMKTSYDKVI are 0.903 and 0.
With […] (CDR3 as printed); Y8G derived by comparing it with the table's wild-type CDR3 AGPMKTSYDKVI, the enrichment by setting is: under setting [1], 1.22; under setting [2], 0.
The like results for […] (CDR3 as printed); S7E derived by comparing it with the table's wild-type CDR3 AGPMKTSYDKVI were, in that order, 1.01 and 0.
On to […] (CDR3 as printed); S7L derived by comparing it with the table's wild-type CDR3 AGPMKTSYDKVI, for which the enrichment came out at 1.06 under setting [1] and 0 under setting [2].
The like results for […] (CDR3 as printed); V11D derived by comparing it with the table's wild-type CDR3 AGPMKTSYDKVI were, in that order, 0.904 and 0.
The like results for […] (CDR3 as printed); K10E derived by comparing it with the table's wild-type CDR3 AGPMKTSYDKVI were, in that order, 1.27 and 0.
Consider […] (CDR3 as printed); I12V derived by comparing it with the table's wild-type CDR3 AGPMKTSYDKVI, for which the enrichment reads like this: under setting [1], 0.739; under setting [2], 0.
Turning to […] (CDR3 as printed); S7T derived by comparing it with the table's wild-type CDR3 AGPMKTSYDKVI, the enrichment reads like this: under setting [1], 0.968; under setting [2], 0.
Consider […] (CDR3 as printed); S7Y derived by comparing it with the table's wild-type CDR3 AGPMKTSYDKVI, for which the enrichment under setting [1] came to 0.999 and the enrichment under setting [2] was 0.
Turning to […] (CDR3 as printed); S7C derived by comparing it with the table's wild-type CDR3 AGPMKTSYDKVI, the enrichment runs as follows: under setting [1], 0.877; under setting [2], 0.
As to […] (CDR3 as printed); G2N derived by comparing it with the table's wild-type CDR3 AGPMKTSYDKVI, the enrichment was 0.848 under setting [1] and 0 under setting [2].
The like results for […] (CDR3 as printed); G2W derived by comparing it with the table's wild-type CDR3 AGPMKTSYDKVI were, in that order, 1.05 and 0.
Consider […] (CDR3 as printed); A1V derived by comparing it with the table's wild-type CDR3 AGPMKTSYDKVI, for which the enrichment by setting is: under setting [1], 0.809; under setting [2], 0.
The like results for […] (CDR3 as printed); K10G derived by comparing it with the table's wild-type CDR3 AGPMKTSYDKVI were, in that order, 1 and 0.
On the same counts, the results for […] (CDR3 as printed); S7F derived by comparing it with the table's wild-type CDR3 AGPMKTSYDKVI are 1.22 and 0.
With […] (CDR3 as printed); I12E derived by comparing it with the table's wild-type CDR3 AGPMKTSYDKVI, the enrichment by setting is: under setting [1], 1.18; under setting [2], 0.
For […] (CDR3 as printed); A1Q derived by comparing it with the table's wild-type CDR3 AGPMKTSYDKVI, the enrichment under setting [1] stood at 0.89 and the enrichment under setting [2] is 0.
On the same counts, the results for […] (CDR3 as printed); K5R derived by comparing it with the table's wild-type CDR3 AGPMKTSYDKVI are 1.15 and 0.
The like results for […] (CDR3 as printed); V11H derived by comparing it with the table's wild-type CDR3 AGPMKTSYDKVI were, in that order, 0.891 and 0.
For the variant […] (CDR3 as printed); V11G derived by comparing it with the table's wild-type CDR3 AGPMKTSYDKVI, the enrichment by setting is: under setting [1], 0.956; under setting [2], 0.
As to […] (CDR3 as printed); M4P derived by comparing it with the table's wild-type CDR3 AGPMKTSYDKVI, the enrichment is 1 under setting [1] and 0 under setting [2].
On the same counts, the results for […] (CDR3 as printed); A1D derived by comparing it with the table's wild-type CDR3 AGPMKTSYDKVI are 0.746 and 0.
With […] (CDR3 as printed); Y8L derived by comparing it with the table's wild-type CDR3 AGPMKTSYDKVI, the enrichment worked out at 1 under setting [1] and 0 under setting [2].
For the variant […] (CDR3 as printed); K10C derived by comparing it with the table's wild-type CDR3 AGPMKTSYDKVI, the enrichment is, setting by setting: under setting [1], 1.06; under setting [2], 0.
The like results for […] (CDR3 as printed); V11C derived by comparing it with the table's wild-type CDR3 AGPMKTSYDKVI were, in that order, 1.08 and 0.
Turning to […] (CDR3 as printed); G2M derived by comparing it with the table's wild-type CDR3 AGPMKTSYDKVI, the enrichment under setting [1] is 1.1 and the enrichment under setting [2] came to 0.
The like results for […] (CDR3 as printed); P3G derived by comparing it with the table's wild-type CDR3 AGPMKTSYDKVI were, in that order, 1 and 0.
The like results for […] (CDR3 as printed); I12R derived by comparing it with the table's wild-type CDR3 AGPMKTSYDKVI were, in that order, 1.1 and 0.
With […] (CDR3 as printed); P3M derived by comparing it with the table's wild-type CDR3 AGPMKTSYDKVI, the enrichment was found to be 1.17 under setting [1] and 0 under setting [2].
On to […] (CDR3 as printed); T6P derived by comparing it with the table's wild-type CDR3 AGPMKTSYDKVI, for which the enrichment is 0.299 under setting [1] and 0 under setting [2].
On the same counts, the results for […] (CDR3 as printed); A1F derived by comparing it with the table's wild-type CDR3 AGPMKTSYDKVI are 0.884 and 0.
On the same counts, the results for […] (CDR3 as printed); I12D derived by comparing it with the table's wild-type CDR3 AGPMKTSYDKVI are 0.942 and 0.
On the same counts, the results for […] (CDR3 as printed); Y8D derived by comparing it with the table's wild-type CDR3 AGPMKTSYDKVI are 0.393 and 40.5.
Regarding […] (CDR3 as printed); K10Q derived by comparing it with the table's wild-type CDR3 AGPMKTSYDKVI, the enrichment by setting is: under setting [1], 0.706; under setting [2], 0.
On the same counts, the results for […] (CDR3 as printed); D9S derived by comparing it with the table's wild-type CDR3 AGPMKTSYDKVI are 1.04 and 0.
For the variant […] (CDR3 as printed); S7N derived by comparing it with the table's wild-type CDR3 AGPMKTSYDKVI, the enrichment worked out at 1.31 under setting [1] and 0 under setting [2].
On the same counts, the results for […] (CDR3 as printed); Y8P derived by comparing it with the table's wild-type CDR3 AGPMKTSYDKVI are 1.08 and 0.
On the same counts, the results for […] (CDR3 as printed); P3I derived by comparing it with the table's wild-type CDR3 AGPMKTSYDKVI are 1.09 and 0.
On the same counts, the results for […] (CDR3 as printed); K10D derived by comparing it with the table's wild-type CDR3 AGPMKTSYDKVI are 0.842 and 0.
With […] (CDR3 as printed); P3K derived by comparing it with the table's wild-type CDR3 AGPMKTSYDKVI, the enrichment by setting is: under setting [1], 1.01; under setting [2], 0.

These data come from publication PMC13397619.
